Measurements taken from the supplement of paper PMC10567573.

B1: PCDHGA10 (parent)
chain: FGIEIEVTDINDNAPKFQAENLDV
B2: FUT8 (parent)
chain: NWRYATGGWETVFRPVSETCTDRS

Variants of: B1
Test: protein stability index of a GFP-peptide fusion (GPS, HEK-293T) (PSI 1-6); higher = more stable
Details: c terminus: a fixed tail appended
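Note: lentivirally expressed fusions sorted by FACS into six bins by GFP to DsRed ratio, PSI derived from sequencing read proportions per bin multiplied by bin number.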

Protein stability index: each site, then its substitutions
L22: C 3.27; D 4.21; R 3.7; T 3.65; E 4.39; K 4.02; M 2.84; V 3.42; Y 2.83; N 3.69; Q 3.71; W 2.53; F 2.66; I 3.02; G 3.97; H 3.4; S 4.17; P 3.36
V24: H 3.6; L 3.43; W 2.81; G 3.7; C 2.8; Q 3.62; T 3.47; S 3.5; R 3.71; F 2.64; M 2.5; P 3.4; I 2.56; K 3.52; N 3.28; E 3.46; D 4.22; A 3.48; Y 2.93
D23: I 1.93; S 2.06; L 2.17; F 1.55; G 2.29; R 1.93; W 1.46; A 2.3; E 2.59; H 1.8; Q 2.42; V 2.56; M 2.52; K 2.08; Y 1.69; P 2.32; T 1.95; C 1.82; N 2.85

Variants of: B2
Test: as above
Details: c terminus: a fixed tail appended

Protein stability index: each site, then its substitutions
F13: V 1.64; T 2.28; E 3.2; Q 2.52; I 1.66; M 2.28; K 3; N 2.78; C 2.15; W 3.09; Y 1.55; D 3.66; H 2.99; P 3.54; R 2.69; L 2.28; A 3.91
T11: L 2.12; N 1.9; G 1.97; Y 4.5; V 2.12; P 2; H 1.69; I 3.25; R 3.69; W 1.98; Q 2.15; F 1.48; E 2.86; D 2.2; K 1.68; C 1.78
V16: I 2.37; P 1.97; D 1.81; Q 2.28; L 1.57; F 1.23; E 1.59; R 1.19; M 2.47; G 3.55; K 2.73; N 1.78; W 2.01; Y 1.96; C 1.06; H 2.56; T 1.61; A 1.66
E18: D 2.28
V12: F 1.45; N 1.97; Y 2.73; Q 2.56; H 2.23; G 1.09; A 2.46; P 2.85; E 2.23; M 2.48; R 2.08; T 1.69; S 1.97; I 2.57; W 1.26; C 2; K 3.27
S17: N 2.29; M 1.28; I 1.28; Y 1.53; A 2.34; Q 2.67; T 1.64; R 1.88; G 3.4; H 1.85; D 2.33; W 2.42; F 2.77; C 3.15
R14: H 1.12; C 3.72; T 3.45; V 1.55; W 1.6; N 3.41; P 2.69; Y 2.1; G 1.57; Q 1.77; M 1.7; D 2.4; E 1.83; I 2.66; K 1.7; F 1.29; S 1.01
G7: W 1.59; K 2.39; R 1.75; Y 2.12; L 1.89; N 2.13; Q 2.49; H 2.22; F 2.64; A 2.94; E 3.17; T 2.12; I 2.11; S 1.97; M 1.81; P 2.19; C 2.08
N1: A 1.16; R 2.23; D 1.7; I 3.1; E 2.44; S 2.12; T 1.68; M 1.12; W 1.53; V 1.83; Q 4.02; K 2.4; L 1.99; G 2.12; Y 2.88; H 2.74; C 2.35
T6: Q 1.6; W 1.65; E 2.25; P 2.44; N 1.48; S 1; M 1.74; R 1.51; H 1.28; K 1.1; I 2.63; Y 1.96; D 2.72; V 2.11; L 1.73
R3: T 3.09; D 3.62; Q 3.15; G 3; F 1.97; W 2.46; N 3.83; I 2.32; P 3.06; S 2.69; E 3.75; C 2.76; V 2.85; M 2.44; H 2.85; Y 1.76; L 2.69; A 3.58
W9: T 1.55; P 2.95; I 2.22; L 2.29; S 2.03; F 1.41; K 2.06; E 2.79; M 1.72; D 2.33; N 2.27; G 1.96; H 2.73; R 1.88; V 2.31; Y 2.32; Q 2.03
A5: R 2.28; M 3.05; P 1.48; K 3.36; Y 2.94; L 2.66; E 2.82; C 1.05; Q 2.91; D 3.2; F 2.43; H 3.69; T 2.33; N 2.95; W 3.33; I 1.39; S 2.36
P15: W 1.98; D 3.23; R 1.68; N 1.95; Y 1.27; L 2.1; T 1.82; S 3.98; Q 2.43; K 2.03; G 2.05; I 2.35
E10: F 3.97; H 2.21; R 2.49; K 3.86; T 1.63; Q 1.2; S 1.86; P 1.18; I 3.19; V 1.02; Y 2.52; M 1.73; N 1.86; D 1.8
G8: H 2.43; A 1.84; R 1.41; L 1.82; C 1.55; E 2.22; Q 1.98; N 2.26; T 2.47; W 2.51; M 2.01; I 1.48; S 2.4; D 2.9; Y 1.89; K 3.73; F 1.53; P 1.74
Y4: M 2.16; C 2.6; W 2.98; H 3.39; L 2.36; V 3.42; I 2.63; D 3.13; S 3.66; F 2.45; Q 3.35; E 4.67; G 4.34; A 3.42; R 3.07; N 3.32; P 3.85; T 3.27
W2: V 3.26; A 3.77; N 3.55; S 3.25; P 4.16; M 3.52; T 3.83; G 3.72; D 3.72; C 2.52; H 4; Q 3.96; F 3.12; Y 2.74; E 3.94
